Data set [1] relates to biotinyl-Leu-oxazolone. Description: self-aminoacylation, catalytic enhancement (BLO) (fold over background); higher = more active; k-Seq, kA / k0A0; sequences stand for … in GGGAAUGGAUCCACAUCUACGAAUUC…UUCACUGCAGACUUGACGAAGCUG
The procedure, abridged:
(§1)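 Mutagenized RNA pools with a 21-nt variable region (0.43 μM) reacted with each biotinyl-aminoacyl-oxazolone at 2–1250 μM. Reactions ran in 50 μL HEPES/NaCl/KCl/MgCl2/CaCl2 buffer with 5% acetonitrile, pH 6.9–7.0, for 90 minutes at room temperature. Streptavidin-captured RNA was quantified by triplicate qPCR and Illumina sequencing, and per-sequence fraction reacted was fit to a pseudo-first-order model with 1000 bootstraps. Catalytic enhancement is median kA divided by the uncatalyzed rate, the low-activity peak of a bimodal Gaussian fit.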

Data set [2] deals with biotinyl-Ile-oxazolone. The experiment in a line: self-aminoacylation, catalytic enhancement (BIO) (fold over background); higher = more active; k-Seq, kA / k0A0; sequences stand for … in GGGAAUGGAUCCACAUCUACGAAUUC…UUCACUGCAGACUUGACGAAGCUG
The procedure, abridged:
as §1

For data set [3], the system named is biotinyl-Trp-oxazolone. The experiment in a line: self-aminoacylation, catalytic enhancement (BWO) (fold over background); higher = more active; k-Seq, kA / k0A0; sequences stand for … in GGGAAUGGAUCCACAUCUACGAAUUC…UUCACUGCAGACUUGACGAAGCUG
The procedure, abridged:
as §1

Data set [4] deals with biotinyl-Phe-oxazolone. Description: self-aminoacylation, catalytic enhancement (BFO) (fold over background); higher = more active; k-Seq, kA / k0A0; sequences stand for … in GGGAAUGGAUCCACAUCUACGAAUUC…UUCACUGCAGACUUGACGAAGCUG
In short, it runs like this:
as §1

Data set [5] deals with biotinyl-Met-oxazolone. The experiment in a line: self-aminoacylation, catalytic enhancement (BMO) (fold over background); higher = more active; k-Seq, kA / k0A0; sequences stand for … in GGGAAUGGAUCCACAUCUACGAAUUC…UUCACUGCAGACUUGACGAAGCUG
The procedure, abridged:
as §1

Data set [6] has as its system biotinyl-Val-oxazolone. The experiment in a line: self-aminoacylation, catalytic enhancement (BVO) (fold over background); higher = more active; k-Seq, kA / k0A0; sequences stand for … in GGGAAUGGAUCCACAUCUACGAAUUC…UUCACUGCAGACUUGACGAAGCUG
In short, it runs like this:
as §1

Variants at the floor of the assay were thinned out.

On to “CUACUUCAAAGGAUCGGUCUG [Fam1A.1 aminoacylation ribozyme variant]”, for which the self-aminoacylation in data set [1] came out at 0.912; in data set [2], 0.925; in data set [3], 0.738; in data set [4] it was 0.753; in data set [5] it was 1.04; in data set [6], 0.902.
For “AUUACCAUGGUCAUAGAGUGA [Fam2.1 aminoacylation ribozyme variant]”, the self-aminoacylation in data set [1] is 8.72; in data set [2], 4.13; in data set [3], 10; in data set [4], 37.6; in data set [5], 8.44; in data set [6], 3.51.
With “AUUACCCUGGUCAUGAAGUGA [Fam2.1 aminoacylation ribozyme variant]”, the self-aminoacylation in data set [1] was 7.74; in data set [2], 4.14; in data set [3], 10.1; in data set [4], 44.8; in data set [5] it was 8.83; in data set [6], 4.08.
“GUACUUCAAACCAUCGGUCUG [Fam1A.1 aminoacylation ribozyme variant]”: the self-aminoacylation in data set [1] turned out to be 0.918; in data set [2], 1.22; in data set [3], 1.31; in data set [4], 2.13; in data set [5] it was 1.13; in data set [6], 1.18.
In the case of “AUUACCCUGGUAAUCGAGAGA [Fam2.1 aminoacylation ribozyme variant]”, the self-aminoacylation in data set [1] turned out to be 0.723; in data set [2] it was 1.02; in data set [3] it was 0.573; in data set [4] it was 0.58; in data set [5] it was 0.722; in data set [6], 0.78.
Consider “CCAUACUUCAAGCAAUCCGUC [Fam1B.1 aminoacylation ribozyme variant]”, for which the self-aminoacylation in data set [1] was found to be 0.949; in data set [2], 1.15; in data set [3], 0.766; in data set [4] it was 0.96; in data set [5], 0.829; in data set [6], 1.12.
Take “AUCACCCUGGUCAUCGAGUGA [Fam2.1 aminoacylation ribozyme variant]”: the self-aminoacylation in data set [1] came to 27; in data set [2], 10.6; in data set [3], 28.4; in data set [4], 154; in data set [5] it was 27.8; in data set [6], 11.3.
“CCCCUUCAAACAAUCGGUCUG [Fam1A.1 aminoacylation ribozyme variant]”: the self-aminoacylation is 3.29 in data set [1]; 1.79 in data set [2]; 72.5 in data set [3]; 185 in data set [4]; 2.05 in data set [5]; 2.44 in data set [6].
Regarding “AGUCCCCUGGUCAUCGAGUGA [Fam2.1 aminoacylation ribozyme variant]”, the self-aminoacylation in data set [1] was 6.55; in data set [2], 3.3; in data set [3] it was 7.41; in data set [4], 42.6; in data set [5] it was 6.67; in data set [6] it was 4.13.
For “AUUCACCUAGGUCAUCGGGCA [Fam2.2 aminoacylation ribozyme variant]”, the self-aminoacylation in data set [1] amounted to 5.57; in data set [2] it was 3.5; in data set [3], 2.81; in data set [4], 3.27; in data set [5], 3.67; in data set [6], 3.24.
Take “AUUCAACUCGGUCAUCGGGUG [Fam2.2 aminoacylation ribozyme variant]”: the self-aminoacylation was found to be 9.77 in data set [1]; 4.15 in data set [2]; 7.4 in data set [3]; 67.4 in data set [4]; 6.48 in data set [5]; 3.84 in data set [6].
With “CCACACUUCUAGCAAUCGGUC [Fam1B.1 aminoacylation ribozyme variant]”, the self-aminoacylation in data set [1] was 0.624; in data set [2] it was 0.771; in data set [3], 0.616; in data set [4], 0.957; in data set [5], 0.611; in data set [6], 0.852.
Take “AAGUUUGCUAAUAGUGGCUAG [Fam3.1 aminoacylation ribozyme variant]”: the self-aminoacylation in data set [1] was found to be 0.65; in data set [2] it was 0.811; in data set [3], 0.748; in data set [4] it was 1.52; in data set [5] it was 0.777; in data set [6], 0.862.
Turning to “AGCUUUGCUAAUAGUCGCAAG [Fam3.1 aminoacylation ribozyme variant]”, the self-aminoacylation in data set [1] amounted to 3.02; in data set [2], 2.95; in data set [3] it was 3.68; in data set [4], 9.09; in data set [5] it was 3.31; in data set [6] it was 2.4.
Consider “AUUAACCUGGUGAUCGAGUGA [Fam2.1 aminoacylation ribozyme variant]”, for which the self-aminoacylation in data set [1] was found to be 6.66; in data set [2] it was 3.62; in data set [3] it was 8.53; in data set [4], 25.7; in data set [5] it was 6.03; in data set [6], 3.16.
For “CCACACUUAAGGCAAUCGGUC [Fam1B.1 aminoacylation ribozyme variant]”, the self-aminoacylation turned out to be 1.03 in data set [1]; 1.15 in data set [2]; 1.25 in data set [3]; 0.764 in data set [4]; 0.983 in data set [5]; 0.981 in data set [6].
For the sequence “CUACUUCAAACAAUCGCCCUG [Fam1A.1 aminoacylation ribozyme variant]”, the self-aminoacylation in data set [1] amounted to 0.959; in data set [2] it was 1.05; in data set [3], 0.581; in data set [4], 0.818; in data set [5], 1.19; in data set [6], 1.2.
Regarding “AUUACCCUGGUCACCGGGUGA [Fam2.1 aminoacylation ribozyme variant]”, the self-aminoacylation in data set [1] was 14.8; in data set [2] it was 6.24; in data set [3] it was 14.1; in data set [4], 87.4; in data set [5], 14.5; in data set [6] it was 7.91.
For “CAACAAUUCAAGCAAUCGGUC [Fam1B.1 aminoacylation ribozyme variant]”, the self-aminoacylation in data set [1] was 1.01; in data set [2], 1.16; in data set [3] it was 1.31; in data set [4], 1.71; in data set [5] it was 1.1; in data set [6] it was 0.937.
As to “AUGCACCUAGGUCAUCGGGAG [Fam2.2 aminoacylation ribozyme variant]”, the self-aminoacylation came out at 1.54 in data set [1]; 1.56 in data set [2]; 1.94 in data set [3]; 1.08 in data set [4]; 1.39 in data set [5]; 1.51 in data set [6].
For the sequence “CUACUACAAACAAUCAGUCUG [Fam1A.1 aminoacylation ribozyme variant]”, the self-aminoacylation is 0.7 in data set [1]; 0.657 in data set [2]; 0.554 in data set [3]; 0.88 in data set [4]; 0.467 in data set [5]; 0.732 in data set [6].

The values are drawn from the supplement of paper PMC9233669.
